Measured values taken from patent US20200317768A1 (published 2020).

T1: human FcγRIIb extracellular domain, His-tagged (human, UniProt P31994 43-217)
T1 construct: also called FcgRIIb (human)
T1 sequence: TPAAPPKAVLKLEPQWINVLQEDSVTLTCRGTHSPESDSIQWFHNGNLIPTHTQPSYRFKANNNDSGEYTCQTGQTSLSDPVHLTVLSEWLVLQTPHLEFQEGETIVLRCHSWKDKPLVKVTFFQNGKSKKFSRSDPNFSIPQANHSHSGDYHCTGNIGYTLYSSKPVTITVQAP

T2: cynomolgus monkey FcγRIIa2 extracellular domain, His-tagged (cynomolgus monkey)
T2 construct: also called cyno FcγRIIa2; cynoFcgRIIa2
T2 chain: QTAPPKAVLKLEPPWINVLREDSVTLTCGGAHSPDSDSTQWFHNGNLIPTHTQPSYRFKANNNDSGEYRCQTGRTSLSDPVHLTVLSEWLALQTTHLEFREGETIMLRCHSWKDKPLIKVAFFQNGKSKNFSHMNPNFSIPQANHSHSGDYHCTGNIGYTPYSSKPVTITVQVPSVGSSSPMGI

T3: cynomolgus monkey FcγRIIIaS extracellular domain, His-tagged (cynomolgus monkey, UniProt Q8SPW2 21-206 at identity 1.00))
T3 construct: also called cyno FcγRIIIaS; cynoFcγRIIIaS
T3 chain: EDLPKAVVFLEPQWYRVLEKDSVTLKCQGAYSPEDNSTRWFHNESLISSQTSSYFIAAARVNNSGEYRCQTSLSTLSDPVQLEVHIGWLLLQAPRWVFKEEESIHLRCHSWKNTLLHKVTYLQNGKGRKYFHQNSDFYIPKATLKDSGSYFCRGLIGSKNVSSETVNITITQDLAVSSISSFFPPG

T4: human FcγRIIaR extracellular domain, His-tagged (human, UniProt P12318 34-217)
T4 construct: also called human FcγRIIa (type R); FcgRIIaR
T4 chain: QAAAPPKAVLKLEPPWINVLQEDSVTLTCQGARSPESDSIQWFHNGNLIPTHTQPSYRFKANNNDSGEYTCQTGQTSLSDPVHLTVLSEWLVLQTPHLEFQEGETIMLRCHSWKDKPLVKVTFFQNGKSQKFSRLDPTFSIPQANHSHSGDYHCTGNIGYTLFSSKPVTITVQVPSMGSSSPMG

T5: human FcγRIIaH extracellular domain, His-tagged (human, UniProt P12318 34-217)
T5 construct: also called human FcγRIIa (type H); FcgRIIaH
T5 sequence: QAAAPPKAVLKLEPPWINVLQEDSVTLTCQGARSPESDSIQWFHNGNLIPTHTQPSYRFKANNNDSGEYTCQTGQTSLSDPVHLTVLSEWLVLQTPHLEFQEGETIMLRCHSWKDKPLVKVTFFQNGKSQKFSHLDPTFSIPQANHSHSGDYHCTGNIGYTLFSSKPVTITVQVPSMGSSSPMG

T6: cynomolgus monkey FcγRIIa3 extracellular domain, His-tagged (cynomolgus monkey)
T6 construct: also called cyno FcγRIIa3; cynoFcgRIIa3
T6 chain: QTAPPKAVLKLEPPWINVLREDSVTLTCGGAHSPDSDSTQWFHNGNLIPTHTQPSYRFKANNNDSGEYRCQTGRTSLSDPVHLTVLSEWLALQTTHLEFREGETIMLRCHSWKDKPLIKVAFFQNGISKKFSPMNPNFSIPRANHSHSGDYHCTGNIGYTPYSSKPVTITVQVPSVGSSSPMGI

T7: cynomolgus monkey FcγRIIb extracellular domain, His-tagged (cynomolgus monkey)
T7 construct: also called cyno FcγRIIb; cynoFcγRIIb
T7 chain: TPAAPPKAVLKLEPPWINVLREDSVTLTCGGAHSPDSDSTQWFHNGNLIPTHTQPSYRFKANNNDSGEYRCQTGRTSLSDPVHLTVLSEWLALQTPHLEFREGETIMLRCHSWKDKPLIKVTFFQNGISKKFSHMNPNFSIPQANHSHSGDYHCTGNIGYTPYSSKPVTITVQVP

T8: cynomolgus monkey FcγRIIa1 extracellular domain, His-tagged (cynomolgus monkey)
T8 construct: also called cyno FcγRIIa1; cynoFcgRIIa1
T8 chain: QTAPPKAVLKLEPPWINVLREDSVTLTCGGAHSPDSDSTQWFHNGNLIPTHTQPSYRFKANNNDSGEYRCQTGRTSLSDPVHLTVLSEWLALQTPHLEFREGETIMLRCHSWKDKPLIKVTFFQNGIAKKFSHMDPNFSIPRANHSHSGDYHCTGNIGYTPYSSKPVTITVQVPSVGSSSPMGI


Experiments:
Experiment in all cases: SPR; KD of SG1 / KD of variant
[1] = target: T1, human FcγRIIb extracellular domain, …
[2] = target: T2, cynomolgus monkey FcγRIIa2 …
[3] = target: T3, cynomolgus monkey FcγRIIIaS …
[4] = target: T4, human FcγRIIaR extracellular domain, …
[5] = target: T5, human FcγRIIaH extracellular domain, …
[6] = target: T9, human FcγRIIIaV extracellular domain, His-tagged (human, UniProt P08637 17-208)
T9 construct: also called FcgRIIIaV
T9 sequence (P08637 17-208 F176V): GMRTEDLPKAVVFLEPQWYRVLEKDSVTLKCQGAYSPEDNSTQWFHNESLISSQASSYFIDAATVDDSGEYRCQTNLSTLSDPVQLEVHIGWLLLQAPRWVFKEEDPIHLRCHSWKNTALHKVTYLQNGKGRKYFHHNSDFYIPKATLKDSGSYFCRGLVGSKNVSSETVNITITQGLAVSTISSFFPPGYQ

[7] = target: T6, cynomolgus monkey FcγRIIa3 …
[8] = target: T7, cynomolgus monkey FcγRIIb extracellular …
[9] = target: T8, cynomolgus monkey FcγRIIa1 …

Binder | KD fold (SG1 = 1) [1] [fold] | KD fold (SG1 = 1) [2] [fold] | KD fold (SG1 = 1) [3] [fold] | KD fold (SG1 = 1) [4] [fold] | KD fold (SG1 = 1) [5] [fold] | KD fold (SG1 = 1) [6] [fold] | KD fold (SG1 = 1) [7] [fold] | KD fold (SG1 = 1) [8] [fold] | KD fold (SG1 = 1) [9] [fold]
MS_M103205H795-SG1/M103202L889-SK1 (antibody, human IgG1, kappa, Parent antibody of the Fc variants; heavy chain constant region SG1, light chain M103202L889-SK1; also called MS1032LO06-SG1) heavy: not shown light: DIVMTQSPATLSLSPGERATLSCTSSQSVYHANWLSWFQQKPGQPPKLLIYWASTLAYGVPSRFSGSGSGTDFTLTISSLQPEDAATYYCAGGYGGGRYAFGQGTKVEIKRTVAAPSVFIFPPSDEQLKSGTASVVCLLNNFYPREAKVQWKVDNALQSGNSQESVTEQDSKDSTYSLSSTLTLSKADYEKHKVYACEVTHQGLSSPVTKSFNRGEC | 1 | 1 | 1 | 1 | 1 | 1 | 1 | 1 | 1
M103205H795-MY006/M103202L889-SK1 (antibody, human IgG1, kappa, Substitution put into M103205H795-SG1) heavy: not shown light: DIVMTQSPATLSLSPGERATLSCTSSQSVYHANWLSWFQQKPGQPPKLLIYWASTLAYGVPSRFSGSGSGTDFTLTISSLQPEDAATYYCAGGYGGGRYAFGQGTKVEIKRTVAAPSVFIFPPSDEQLKSGTASVVCLLNNFYPREAKVQWKVDNALQSGNSQESVTEQDSKDSTYSLSSTLTLSKADYEKHKVYACEVTHQGLSSPVTKSFNRGEC | 2 | 2.7 | 1.13 | 0.6 | 0.5 | 1.12 | 4.7 | 2 | 1.6
M103205H795-MY010/M103202L889-SK1 (antibody, human IgG1, kappa, Substitution put into M103205H795-SG1) heavy: not shown light: DIVMTQSPATLSLSPGERATLSCTSSQSVYHANWLSWFQQKPGQPPKLLIYWASTLAYGVPSRFSGSGSGTDFTLTISSLQPEDAATYYCAGGYGGGRYAFGQGTKVEIKRTVAAPSVFIFPPSDEQLKSGTASVVCLLNNFYPREAKVQWKVDNALQSGNSQESVTEQDSKDSTYSLSSTLTLSKADYEKHKVYACEVTHQGLSSPVTKSFNRGEC | 0.9 | 1 | 1.64 | 0.6 | 0.6 | 3.68 | 1.2 | 0.5 | 0.5
M103205H795-MY008/M103202L889-SK1 (antibody, human IgG1, kappa, Substitution put into M103205H795-SG1) heavy: not shown light: DIVMTQSPATLSLSPGERATLSCTSSQSVYHANWLSWFQQKPGQPPKLLIYWASTLAYGVPSRFSGSGSGTDFTLTISSLQPEDAATYYCAGGYGGGRYAFGQGTKVEIKRTVAAPSVFIFPPSDEQLKSGTASVVCLLNNFYPREAKVQWKVDNALQSGNSQESVTEQDSKDSTYSLSSTLTLSKADYEKHKVYACEVTHQGLSSPVTKSFNRGEC | 1.8 | 1.4 | 0.97 | 0.6 | 0.4 | 1.29 | 0.7 | 1.1 | 0.8
M103205H795-MY013/M103202L889-SK1 (antibody, human IgG1, kappa, Substitution put into M103205H795-SG1) heavy: not shown light: DIVMTQSPATLSLSPGERATLSCTSSQSVYHANWLSWFQQKPGQPPKLLIYWASTLAYGVPSRFSGSGSGTDFTLTISSLQPEDAATYYCAGGYGGGRYAFGQGTKVEIKRTVAAPSVFIFPPSDEQLKSGTASVVCLLNNFYPREAKVQWKVDNALQSGNSQESVTEQDSKDSTYSLSSTLTLSKADYEKHKVYACEVTHQGLSSPVTKSFNRGEC | 1.2 | 1.1 | 1.09 | 0.2 | 0.3 | 1.98 | 0.3 | 0.9 | 0.7

Second part, the binder after the results:

KD fold (SG1 = 1) [1] [fold] | KD fold (SG1 = 1) [2] [fold] | KD fold (SG1 = 1) [3] [fold] | KD fold (SG1 = 1) [4] [fold] | KD fold (SG1 = 1) [5] [fold] | KD fold (SG1 = 1) [6] [fold] | KD fold (SG1 = 1) [7] [fold] | KD fold (SG1 = 1) [8] [fold] | KD fold (SG1 = 1) [9] [fold] | Binder
1.6 | 1.5 | 1.57 | 1.2 | 0.8 | 2.15 | 5.3 | 1.1 | 1.1 | M103205H795-MY016/M103202L889-SK1 (antibody, human IgG1, kappa, Substitution put into M103205H795-SG1) heavy: not shown light: DIVMTQSPATLSLSPGERATLSCTSSQSVYHANWLSWFQQKPGQPPKLLIYWASTLAYGVPSRFSGSGSGTDFTLTISSLQPEDAATYYCAGGYGGGRYAFGQGTKVEIKRTVAAPSVFIFPPSDEQLKSGTASVVCLLNNFYPREAKVQWKVDNALQSGNSQESVTEQDSKDSTYSLSSTLTLSKADYEKHKVYACEVTHQGLSSPVTKSFNRGEC
1.8 | 1.1 | 1.8 | 1.2 | 0.6 | 2.15 | 1.5 | 0.8 | 0.8 | M103205H795-MY037/M103202L889-SK1 (antibody, human IgG1, kappa, Substitution put into M103205H795-SG1) heavy: not shown light: DIVMTQSPATLSLSPGERATLSCTSSQSVYHANWLSWFQQKPGQPPKLLIYWASTLAYGVPSRFSGSGSGTDFTLTISSLQPEDAATYYCAGGYGGGRYAFGQGTKVEIKRTVAAPSVFIFPPSDEQLKSGTASVVCLLNNFYPREAKVQWKVDNALQSGNSQESVTEQDSKDSTYSLSSTLTLSKADYEKHKVYACEVTHQGLSSPVTKSFNRGEC
1.8 | 1.1 | 1.16 | 0.7 | 0.6 | 1.47 | 1.5 | 0.9 | 0.8 | M103205H795-MY038/M103202L889-SK1 (antibody, human IgG1, kappa, Substitution put into M103205H795-SG1) heavy: not shown light: DIVMTQSPATLSLSPGERATLSCTSSQSVYHANWLSWFQQKPGQPPKLLIYWASTLAYGVPSRFSGSGSGTDFTLTISSLQPEDAATYYCAGGYGGGRYAFGQGTKVEIKRTVAAPSVFIFPPSDEQLKSGTASVVCLLNNFYPREAKVQWKVDNALQSGNSQESVTEQDSKDSTYSLSSTLTLSKADYEKHKVYACEVTHQGLSSPVTKSFNRGEC
1 | 2 | 0.9 | 1.1 | 1.3 | 1.17 | 1.4 | 1.2 | 1.3 | M103205H795-MY014/M103202L889-SK1 (antibody, human IgG1, kappa, Substitution put into M103205H795-SG1) heavy: not shown light: DIVMTQSPATLSLSPGERATLSCTSSQSVYHANWLSWFQQKPGQPPKLLIYWASTLAYGVPSRFSGSGSGTDFTLTISSLQPEDAATYYCAGGYGGGRYAFGQGTKVEIKRTVAAPSVFIFPPSDEQLKSGTASVVCLLNNFYPREAKVQWKVDNALQSGNSQESVTEQDSKDSTYSLSSTLTLSKADYEKHKVYACEVTHQGLSSPVTKSFNRGEC
